In the experiment the target is recombinant CD47 (integrin associated protein), K24-S139, GST-fused (human). Description: SPR; Biacore X100; recombinant CD47 immobilised on a CM5 chip (amine coupling), analyte at 0.125, 0.25, 0.5, 1 and 2 uM, single-cycle kinetics, 120 s contact, 180 s dissociation (last cycle 580 s); HBS-EP+ (10 mM HEPES pH 7.4, 150 mM NaCl, 3 mM EDTA, 0.05% P20). A general note: Surface plasmon resonance follows binding to a sensor surface in real time, without labels.

On to “recombinant PfMSA180-Tr4 (PfMSA180 truncate 4, residues A805-P1093) (domain or fragment)”, for which the equilibrium dissociation constant (Kd) (usually the concentration at which binding is half-saturated) came to 2.06 nM and the stoichiometry N (in general, a count of units in the complex or per binding partner) was determined as 1.

The record behind these values is paper PMC6459815.
